Results as given in publication PMC10995880.
Several values for one entry are separate records, joined by “and”; a condition that tells them apart may be missing. Identical values can stand only once. Like-named read-outs stand apart in the source and are kept apart here.

Assays:
[1] = molecular target: His6-PEX19-WT (1–299 aa), non-farnesylated (human) (UniProt P40855); assay: cross-linking; UV crosslinking from Bpa at L264 of PEX26; purified PEX19·PEX26^Bpa complex chased with SGTA instead of CaM
[2] = molecular target: His6-PEX19-αd4A (F125A, L129A, L133A, L136A), non-farnesylated (human) (UniProt P40855); assay: as above
[3] = molecular target: His6-PEX19-WT (1–299 aa), non-farnesylated (human) (UniProt P40855); assay: cross-linking; UV crosslinking from Bpa at L264 of PEX26; purified PEX19·PEX26^Bpa complex (400 nM PEX19) chased with 20 μM CaM at room temperature in 20 mM K-HEPES pH 7.5, 150 mM CH3COOK, 1 mM Ca acetate, 1 mM DTT, 10% glycerol; frozen aliquots irradiated; anti-Strep blot; dissociation (%) = PEX26xCaM/(PEX26xPEX19 + PEX26xCaM)
[4] = molecular target: His6-PEX19-αd4A (F125A, L129A, L133A, L136A), non-farnesylated (human) (UniProt P40855); assay: as above
PEX19-WT proteins = assay: as above
PEX19-αd4A proteins = assay: as above
[5] = molecular target: farnesylated PEX19-WT (PEX19-WT^F) (human) (UniProt P40855); assay: as above
[6] = molecular target: 2×Strep-SUMO-PEX26 (237-305aa) (UniProt Q7Z412)
[7] = molecular target: PEX3 cytosolic domain (Homo sapiens) (UniProt P56589); settings: cited from earlier work
[8] = molecular target: PEX3 cytosolic domain (Homo sapiens) (UniProt P56589); settings: cited from earlier work; remark: listed apart in the source

Sequence of 2×Strep-SUMO-PEX26 (237-305aa) (Q7Z412 237-305): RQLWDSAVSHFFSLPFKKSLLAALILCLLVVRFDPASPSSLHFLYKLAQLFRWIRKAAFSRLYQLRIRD
Sequence of PEX3 cytosolic domain (Homo sapiens) (P56589 41-373): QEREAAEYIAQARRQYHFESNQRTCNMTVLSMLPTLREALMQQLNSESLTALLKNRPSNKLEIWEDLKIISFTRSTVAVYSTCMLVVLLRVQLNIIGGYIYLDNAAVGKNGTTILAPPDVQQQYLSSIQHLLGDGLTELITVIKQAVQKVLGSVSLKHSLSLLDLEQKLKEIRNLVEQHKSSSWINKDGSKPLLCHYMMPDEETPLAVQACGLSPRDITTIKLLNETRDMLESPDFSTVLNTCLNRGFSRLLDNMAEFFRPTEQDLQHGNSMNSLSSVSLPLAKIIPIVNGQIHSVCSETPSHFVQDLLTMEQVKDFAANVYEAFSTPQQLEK
Sequence of PEX19 αa peptide (P40855 14-33): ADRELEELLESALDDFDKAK
Sequence of PEX19 (P40855 2-296): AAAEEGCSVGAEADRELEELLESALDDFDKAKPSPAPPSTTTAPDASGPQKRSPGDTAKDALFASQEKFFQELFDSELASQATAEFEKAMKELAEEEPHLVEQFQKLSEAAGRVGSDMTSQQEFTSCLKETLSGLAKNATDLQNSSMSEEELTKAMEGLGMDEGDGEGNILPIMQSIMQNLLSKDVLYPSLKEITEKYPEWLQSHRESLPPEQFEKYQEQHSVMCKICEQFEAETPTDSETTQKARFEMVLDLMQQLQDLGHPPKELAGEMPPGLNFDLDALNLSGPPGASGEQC
Sequence of farnesylated PEX19-WT (PEX19-WT^F) (P40855 whole entry): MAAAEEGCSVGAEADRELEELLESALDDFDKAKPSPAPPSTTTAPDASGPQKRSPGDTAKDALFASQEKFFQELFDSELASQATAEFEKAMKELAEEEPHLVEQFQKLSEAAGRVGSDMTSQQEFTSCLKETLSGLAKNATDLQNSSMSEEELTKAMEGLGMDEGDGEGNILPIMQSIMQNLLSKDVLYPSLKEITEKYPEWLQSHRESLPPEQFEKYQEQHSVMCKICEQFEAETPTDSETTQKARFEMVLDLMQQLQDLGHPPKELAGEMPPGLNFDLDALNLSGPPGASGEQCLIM
Sequence of His6-PEX19-WT (1–299 aa), non-farnesylated (P40855 whole entry, the tested form may be a part): as the sequence (P40855 whole entry) above

Substance: 2×Strep-SUMO-PEX26^Bpa (L264^Bpa) (from UniProt Q7Z412 237-305) (domain or fragment)
- PEX26 dissociation (%) within 80 min of SGTA chase [1]: < 4%
- PEX26 dissociation (%) within 10 min of SGTA chase [2]: > 40%
- PEX26 dissociation (%) within 20 min of SGTA chase [2]: 50%
- PEX26 dissociation (%) within 10 min of CaM chase [3]: 16%
- time to release ∼20% of PEX26 to CaM [3]: 30 min and 40 min
- PEX26 dissociation (%) within 10 min of CaM chase [4]: 70%
- PEX26 dissociation (%) within 4 h of CaM chase (PEX19-WT proteins): 20% and 30%
- PEX26 dissociation (%) within 5 min of CaM chase (PEX19-αd4A proteins): 60% and 80%
- time to release ∼20% of PEX26 to CaM [5]: 240 min

Substance: His6-PEX19-WT (1–299 aa), non-farnesylated (from UniProt P40855 1-299) (natural protein)
- turbidity assay (OD360): concentration of PEX19 for half-maximal solubilization of 1.5 μM PEX26 (K soluble) [6]: 1.71 µM

Substance: PEX19 (from UniProt P40855)
- Kd [7]: 3.4 nM

Substance: PEX19 αa peptide (from UniProt P40855)
- Kd [8]: 40.8 nM

Substance: farnesylated PEX19-WT (PEX19-WT^F) (from UniProt P40855 1-299) (natural protein)
- turbidity assay (OD360): concentration of PEX19 for half-maximal solubilization of 1.5 μM PEX26 (K soluble) [6]: 0.72 µM
